Results: patent US20100015637A1 (AbbVie / Abbott, published 2010)

Experiments:
[1] = molecular target: human PlGF-1 comprising amino acids 1-137 produced in human embryonic kidney cells (human) (UniProt P49763); test: Format 2 …, capture MAb264, detection Pb264; sFlt-1 77 pmol/L (ratio 2.5)
[2] = molecular target: human PlGF-1 comprising amino acids 1-137 produced in human embryonic kidney cells (human) (UniProt P49763); test: Format 1 …, capture 2-826-335, detection 1-255-713; sFlt-1 920 pmol/L (ratio 30)
[3] = molecular target: human PlGF-1 comprising amino acids 1-137 produced in human embryonic kidney cells (human) (UniProt P49763); test: Format 3 Quantikine ELISA, capture MAb264, detection Pb264; sFlt-1 307 pmol/L (ratio 10)
[4] = molecular target: human PlGF-1 comprising amino acids 1-137 produced in human embryonic kidney cells (human) (UniProt P49763); test: Format 1 …, capture 2-826-335, detection 1-255-713; sFlt-1 1227 pmol/L (ratio 40)
[5] = molecular target: human PlGF-1 comprising amino acids 1-137 produced in human embryonic kidney cells (human) (UniProt P49763); test: Format 3 Quantikine ELISA, capture MAb264, detection Pb264; sFlt-1 613 pmol/L (ratio 20)
[6] = molecular target: T1, CHO human PlGF-1 fragment (comprising amino acids 17-131; ATCC PTA-8540) (human, UniProt P49763 35-221); test: … sandwich, capture MAb826, detection pAb264; antigen 250 pg/mL
T1 sequence: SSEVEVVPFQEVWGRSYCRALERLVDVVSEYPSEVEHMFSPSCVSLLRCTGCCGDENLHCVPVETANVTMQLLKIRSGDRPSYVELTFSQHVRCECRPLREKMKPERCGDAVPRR

[7] = molecular target: T2, CHO human PlGF-1 comprising amino acids 1-137 (human PlGF-1-His (1-131), CHO 6305) (human, UniProt P49763 19-221, N-glycans at N21 (completely glycosylated) and N89 (partially glycosylated)); test: as above
T2 construct: Mature human PlGF-1 with 6xHis tag (137 amino acids); also called CHO (1-137)
T2 sequence: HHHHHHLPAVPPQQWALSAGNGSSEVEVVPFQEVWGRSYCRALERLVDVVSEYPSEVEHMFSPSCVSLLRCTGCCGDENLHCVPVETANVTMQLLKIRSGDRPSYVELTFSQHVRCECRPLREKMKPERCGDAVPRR

[8] = molecular target: T3, human PlGF-1 comprising amino acids 1-137 produced in human embryonic kidney cells (human, UniProt P49763 19-221); test: as above
T3 construct: Mature human PlGF-1 with 6xHis tag; also called HEK (1-137); full length HEK human PlGF-1 (1-137)
T3 sequence: T2 sequence

[9] = molecular target: T4, human PlGF-1 fragment (comprising amino acids 17-131) produced in human embryonic kidney cells (human, UniProt P49763 35-221); test: as above
T4 sequence: T1 sequence

[10] = molecular target: T1, CHO human PlGF-1 fragment (comprising …); test: … sandwich, capture MAb826, detection pAb264; antigen 750 pg/mL
[11] = molecular target: T2, CHO human PlGF-1 comprising amino acids …; test: as above
[12] = molecular target: T3, human PlGF-1 comprising amino acids …; test: as above
[13] = molecular target: T4, human PlGF-1 fragment (comprising amino …); test: as above
[14] = molecular target: recombinant human PlGF-1 (comprising amino acids 1-131) expressed in E. coli (R&D Systems) (human) (UniProt P49763); test: … sandwich, capture MAb826, detection pAb264; antigen 60 pg/mL
[15] = molecular target: T1, CHO human PlGF-1 fragment (comprising …); test: … sandwich, capture MAb255, detection MAb826; antigen 60 pg/mL
Method in brief: (§1)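 Values are chemiluminescent relative light units (RLU) from a sandwich immunoassay of human PlGF-1 antigen preparations, some of them recombinant forms made in CHO cells. Antigen levels ran from 0 to 1500 pg/mL. Capture was by a monoclonal anti-human PlGF-1 antibody bound to magnetic microparticles, and detection was by an acridinium ester-labeled monoclonal anti-human PlGF-1 antibody.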

[16] = molecular target: T2, CHO human PlGF-1 comprising amino acids …; test: as above
Method in brief: as §1

[17] = molecular target: T3, human PlGF-1 comprising amino acids …; test: as above
Method in brief: as §1

[18] = molecular target: T4, human PlGF-1 fragment (comprising amino …); test: as above
Method in brief: as §1

native sFlt-1, isolated from human placental tissue (from UniProt P17948 27-687) (receptor)
% Inhibition [1]: 37.2%
PlGF-1 Measured [1]: 494 pg/mL
% Inhibition [2]: 90.7%
PlGF-1 Measured [2]: 95.1 pg/mL
% Inhibition [3]: 32.6%
PlGF-1 Measured [3]: 583 pg/mL
% Inhibition [4]: 91.9%
PlGF-1 Measured [4]: 83.2 pg/mL
% Inhibition [5]: 40.4%
PlGF-1 Measured [5]: 515 pg/mL

B1: monoclonal antibody 2-826-335 (produced by murine hybridoma cell line 2-826-335, ATCC PTA-8539) (antibody, mouse IgG1, V domains shown)
VH: QVQLKQSGPGLVQPSQSLSITCTVSGFSLTTYGIHWVRQSPGKGLEWLGVMWSGGDTDYDAAFISRLSISKDNSKSQVFFKMNSLQANDTGIYYCARYRFYGMDYWGQGTSVTVSS
VL: AIQMTQSSSSFSVSLGDRVTITCKASEDIYNRFAWYQQKPGNAPRLLISGAASLEAGVPSRFSGSGSGQDYTLSITSLQTEDVATYYCQQYWSTPWTFGGGTKLEIKR
notes: also called MAb826
RLU [6]: 93600 RLU
RLU [7]: 66100 RLU
RLU [8]: 173000 RLU
RLU [9]: 126000 RLU
RLU [10]: 239000 RLU
RLU [11]: 180000 RLU
RLU [12]: 423000 RLU
RLU [13]: 336000 RLU
RLU [14]: 65500 RLU

B2: monoclonal antibody 1-255-713 (produced by murine hybridoma cell line 1-255-713, ATCC PTA-8536) (antibody, mouse IgG2a, V domains shown)
VH: QVHLQQSGAELMKPGASVKISCKATGYTFSSYWIEWVKQRPGHGLEWIGEILPGSVSNNFNEKFKDKATLTADPSSNTAYIQVSSLTSEDSAVYYCARSTGFYYGGNYFDHWGQGTTLAVSS
VL: DVVMTQTPLSLPVSPGDQASISCRSSQSLVHSNGHTYLHWYLQKPGQSPKLLIYKVSNRFSGVPDRVSGSGSGTDFTLKISRVEAEDLGVYFCSQSTHVPPTFGGGTKLEIKR
notes: also called MAb255
RLU [15]: 42100 RLU
RLU [16]: 42200 RLU
RLU [17]: 101000 RLU
RLU [18]: 57900 RLU
